{"source": "patent US20220185853A1", "about": "“AMANTADINE BINDING PROTEIN” (UNIVERSITY OF WASHINGTON, priority 2019, published 2022)", "molecules": {"B1": {"name": "ABP: de novo designed homo-trimeric amantadine-binding protein, SEQ ID NO:1 (protein)", "chain": "DAQDKLKYLVKQLERALRELKKSLDELERSLEELEKNPSEDALVENNRLNVENNKIIVEVLRIILELAKASAKLA", "modifications": "homotrimer"}, "B2": {"name": "2L6HC3_13: previously characterized design; same backbone parameters as ABP but lacks the amantadine binding site (protein)", "chain": "GTKYELRRALEELEKALRELKKSLDELERSLEELEKNPSEDALVENNRLNVENNKIIVEVLRIIAEVLKINAKSD"}, "B3": {"name": "ABP (amantadine-binding protein) (designed binder)", "chain": "GSHMGDAQDKLKYLVKQLERALRELKKSLDELERSLEELEKNPSEDALVENNRLNVENNKIIVEVLRIILELAKASAKLA", "notes": "The measurement row with m1 as both partners means self-association of ABP subunits"}}, "key": {"[1]": {"test_system": "ABP", "experiment": "Circular dichroism temperature melt of ABP in the presence of amantadine", "type": "binding", "procedure": "(§1) A synthetic gene encoding ABP was obtained and the protein expressed in E. coli.The design was expressed at high levels in the soluble fraction and was found by SEC-MALS to be a trimer in the presence and absence of amantadine (FIG. 2a). Interactions with amantadine were probed using thermofluor dye binding assay (differential scanning fluorimetry). […] As the protein was heated to 95° C., the fluorescence signal decreased, corresponding to protein aggregation at higher temperatures. […] In contrast, 2L6HC3_13, which has the same backbone parameters but lacks the amantadine binding site, is thermally stable by thermofluor assay, only starting to denature at ˜80° C. (FIG. 2b).\n(§2) CD wavelength scans (260 to 195 nm) and temperature melts (25 to 95° C.) were measured using a JASCO™ J-1500 or an AVIV™ model 420 CD spectrometer. Temperature melts monitored […] at 222 nm and were carried out at a heating rate of 4° C/min. Protein samples were prepared at 0.25 mg/mL in phosphate buffered saline (PBS) pH 7.4 in a 0.1 cm cuvette."}, "[2]": {"test_system": "ABP (amantadine-binding protein)", "experiment": "Thermofluor dye binding assay (differential scanning fluorimetry), amantadine on ABP", "settings": "1 mM amantadine, 5 μM protein, SYPRO orange, 25° C.", "procedure": "as §1\n(§3) Thermofluor assays were performed in SAXS buffer using a CFX96 Touch™ Real-Time PCR machine (Bio-Rad). Thermal stability assays were performed using 45 μL of 5 μM protein (with or without 1 mM amantadine) and 5 μL of freshly prepared 200X SYPRO™ orange (Thermo-Fisher) solution in SAXS buffer. The temperature was ramped from 25 ° C. to 95 ° C. in 0.5 ° C. increments with intervals of 5 s. Fluorescence was read in the FRET scanning mode. The average of three replicates of buffer+SYPRO orange solution (no protein control) was subtracted from the average of three replicates for each sample."}, "[3]": {"test_system": "ABP_L6Q", "experiment": "Thermofluor assay, amantadine on ABP_L6Q", "type": "binding", "settings": "1 mM amantadine, 5 μM protein, SYPRO orange, 25° C.", "procedure": "(§4) As the protein was heated to 95° C., the fluorescence signal decreased, corresponding to protein aggregation at higher temperatures.\nas §3"}, "[4]": {"test_system": "2L6HC3_13", "experiment": "Thermofluor assay, amantadine on 2L6HC3_13 (scaffold lacking the amantadine binding site)", "settings": "1 mM amantadine", "procedure": "as §1, §3"}, "[5]": {"experiment": "Thermofluor melting curve of the proteins without ligand", "type": "physicochemical", "settings": "for initial fluorescence signal of the apo protein (thermofluor melting curve): 25° C., without amantadine", "procedure": "as §1, §4, §3"}, "[6]": {"experiment": "Circular dichroism temperature melt of ABP", "type": "physicochemical", "settings": "CD at 25, 75, 95° C., without amantadine", "procedure": "as §1, §2"}, "[7]": {"experiment": "SEC-MALS oligomeric state", "type": "physicochemical", "settings": "in the presence and absence of amantadine", "procedure": "as §1"}, "[8]": {"target": "the molecule itself", "experiment": "SEC-MALS; self-association of ABP subunits into a homo-trimer"}}, "note": "Entries after “also recorded” stand apart in the source; their conditions may differ.", "data": [{"molecule": "NC12CC3CC(CC(C3)C1)C2", "note": "[amantadine]", "values": [{"measurement": "loss in CD signal of ABP on heating to 95° C. in the presence of amantadine", "setting": "[1]; 1 mM amantadine", "result": "not significantly altered"}, {"measurement": "thermal stability of ABP by CD spectrum in the presence of amantadine", "setting": "[1]; 5 mM amantadine, 25, 75, 95° C.", "result": "not significantly affected"}, {"measurement": "initial fluorescence signal of ABP in the presence of amantadine, compared with apo-ABP", "setting": "[2]", "result": "lowered; also recorded: much lower"}, {"measurement": "initial fluorescence signal of ABP_L6Q in the presence of amantadine, compared with apo-ABP_L6Q", "setting": "[3]", "result": "lowered; also recorded: much lower"}, {"measurement": "effect of amantadine on the melting curve of 2L6HC3_13", "setting": "[4]", "result": "no effect"}]}, {"molecule": "B1", "values": [{"measurement": "initial fluorescence signal of the apo protein (thermofluor melting curve)", "setting": "[5]", "result": "high"}, {"measurement": "thermal stability of the all α-helical structure by CD spectrum", "setting": "[6]", "result": "fairly stable up to 75 °C"}, {"measurement": "oligomeric state by SEC-MALS", "setting": "[7]", "result": "trimer"}]}, {"molecule": "B2", "values": [{"measurement": "initial fluorescence signal of the apo protein (thermofluor melting curve)", "setting": "[5]", "result": "very low"}, {"measurement": "temperature at which the protein starts to denature (thermofluor)", "setting": "[5]; thermofluor assay, 25 to 95° C.", "result": "~80", "unit": "°C"}]}, {"molecule": "B3", "values": [{"measurement": "binding result", "setting": "[8]", "result": "binds"}]}]}
